Assay results taken from patent publication US7049400.

Target: MD9 (mammalian version of D9 mutant, EGFP-DEVD) (Aequorea victoria (Water jellyfish) (Mesonema victoria)) [GFP: P42212]
Assay: cell-based or functional assay

activated caspase-3 in HeLa cells induced to apoptosis by TNFα and cycloheximide (from UniProt P42574 29-277) (enzyme)
decrease in relative fluorescence intensity of mutant GFP in comparison to wild type GFP: 50%
